Reference: patent US20090291890A1 (published 2009)
Several values for one entry are separate records, joined by “and”; a condition that tells them apart may be missing. Identical values can stand only once.

Legend:
[1] = target: T1, soluble tissue factor (sTF) (human); assay: SPR (Biacore T100), sTF on CM5 chip, 1:1 fit; FVIIa from 293-F cells
T1 chain: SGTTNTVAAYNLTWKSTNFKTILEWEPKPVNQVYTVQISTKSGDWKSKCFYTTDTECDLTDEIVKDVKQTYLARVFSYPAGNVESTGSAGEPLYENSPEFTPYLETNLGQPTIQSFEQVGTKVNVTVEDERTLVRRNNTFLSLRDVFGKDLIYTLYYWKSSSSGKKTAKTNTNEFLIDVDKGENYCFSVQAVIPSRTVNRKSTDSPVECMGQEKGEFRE

[2] = target: Factor X (Homo sapiens (Human)) (UniProt P00742)
Factor X (Homo sapiens (Human)), sequence (P00742 41-488 limits assumed): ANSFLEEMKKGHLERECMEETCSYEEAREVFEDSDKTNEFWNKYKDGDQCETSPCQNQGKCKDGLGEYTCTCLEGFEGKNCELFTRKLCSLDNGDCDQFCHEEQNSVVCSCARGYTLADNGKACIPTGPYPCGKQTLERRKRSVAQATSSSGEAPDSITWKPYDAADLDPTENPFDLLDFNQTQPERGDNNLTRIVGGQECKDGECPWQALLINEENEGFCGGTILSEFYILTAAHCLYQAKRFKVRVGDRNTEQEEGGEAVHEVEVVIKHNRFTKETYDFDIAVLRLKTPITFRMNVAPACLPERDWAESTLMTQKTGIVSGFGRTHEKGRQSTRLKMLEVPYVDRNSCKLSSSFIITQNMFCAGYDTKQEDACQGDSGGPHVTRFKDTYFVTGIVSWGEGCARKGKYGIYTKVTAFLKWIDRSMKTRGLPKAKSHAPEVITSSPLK

Mesyl-dFPR-ACC = target: T2, Mesyl-dFPR-ACC
T2 sequence (peptide, N-terminal mesyl; D-Phe at position 1 (dF); C-terminal ACC fluorophore): FPR

[3] = target: T3, soluble tissue factor (recombinant human Coagulation Factor III/soluble tissue factor; R&D Systems) (human); assay: SPR (Biacore T100), sTF on chip, two-state fit
T3 chain: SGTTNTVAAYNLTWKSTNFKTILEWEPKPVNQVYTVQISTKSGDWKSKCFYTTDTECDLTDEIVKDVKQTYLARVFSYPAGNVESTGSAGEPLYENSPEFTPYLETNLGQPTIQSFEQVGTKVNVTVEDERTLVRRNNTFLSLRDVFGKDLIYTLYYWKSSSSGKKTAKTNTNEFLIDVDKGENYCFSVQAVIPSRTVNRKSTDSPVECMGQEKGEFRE

[4] = target: T3, soluble tissue factor (recombinant …); assay: SPR (Biacore T100), sTF on chip, two-state fit; FVIIa made in CHOX cells

Binder	Kd [1] [nM]	Affinity Kd-WT/Kd-mut [4]	Kd [4] [nM]	also measured
FVIIa variant Q286R/M298Q/Q366N (enzyme) light: ANAFLEELRPGSLERECKEEQCSFEEAREIFKDAERTKLFWISYSDGDQCASSPCQNGGSCKDQLQSYICFCLPAFEGRNCETHKDDQLICVNENGGCEQYCSDHTGTKRSCRCHEGYSLLADGVSCTPTVEYPCGKIPILEKRNASKPQGR heavy: IVGGKVCPKGECPWQVLLLVNGAQLCGGTLINTIWVVSAAHCFDKIKNWRNLIAVLGEHDLSEHDGDEQSRRVAQVIIPSTYVPGTTNHDIALLRLHQPVVLTDHVVPLCLPERTFSERTLAFVRFSLVSGWGRLLDRGATALELQVLNVPRLMTQDCLQQSRKVGDSPNITEYMFCAGYSDGSKDSCKGDSGGPHATHYRGTWYLTGIVSWGNGCATVGHFGVYTRVSQYIEWLQKLMRSEPRPGVLLRAPFP	3.8			
FVIIa variant Q286N (enzyme) light: ANAFLEELRPGSLERECKEEQCSFEEAREIFKDAERTKLFWISYSDGDQCASSPCQNGGSCKDQLQSYICFCLPAFEGRNCETHKDDQLICVNENGGCEQYCSDHTGTKRSCRCHEGYSLLADGVSCTPTVEYPCGKIPILEKRNASKPQGR heavy: IVGGKVCPKGECPWQVLLLVNGAQLCGGTLINTIWVVSAAHCFDKIKNWRNLIAVLGEHDLSEHDGDEQSRRVAQVIIPSTYVPGTTNHDIALLRLHQPVVLTDHVVPLCLPERTFSERTLAFVRFSLVSGWGNLLDRGATALELMVLNVPRLMTQDCLQQSRKVGDSPNITEYMFCAGYSDGSKDSCKGDSGGPHATHYRGTWYLTGIVSWGQGCATVGHFGVYTRVSQYIEWLQKLMRSEPRPGVLLRAPFP	8.9			
FVIIa variant Q286S (enzyme) light: ANAFLEELRPGSLERECKEEQCSFEEAREIFKDAERTKLFWISYSDGDQCASSPCQNGGSCKDQLQSYICFCLPAFEGRNCETHKDDQLICVNENGGCEQYCSDHTGTKRSCRCHEGYSLLADGVSCTPTVEYPCGKIPILEKRNASKPQGR heavy: IVGGKVCPKGECPWQVLLLVNGAQLCGGTLINTIWVVSAAHCFDKIKNWRNLIAVLGEHDLSEHDGDEQSRRVAQVIIPSTYVPGTTNHDIALLRLHQPVVLTDHVVPLCLPERTFSERTLAFVRFSLVSGWGSLLDRGATALELMVLNVPRLMTQDCLQQSRKVGDSPNITEYMFCAGYSDGSKDSCKGDSGGPHATHYRGTWYLTGIVSWGQGCATVGHFGVYTRVSQYIEWLQKLMRSEPRPGVLLRAPFP	8.2			
FVIIa variant Q286E (enzyme) light: ANAFLEELRPGSLERECKEEQCSFEEAREIFKDAERTKLFWISYSDGDQCASSPCQNGGSCKDQLQSYICFCLPAFEGRNCETHKDDQLICVNENGGCEQYCSDHTGTKRSCRCHEGYSLLADGVSCTPTVEYPCGKIPILEKRNASKPQGR heavy: IVGGKVCPKGECPWQVLLLVNGAQLCGGTLINTIWVVSAAHCFDKIKNWRNLIAVLGEHDLSEHDGDEQSRRVAQVIIPSTYVPGTTNHDIALLRLHQPVVLTDHVVPLCLPERTFSERTLAFVRFSLVSGWGELLDRGATALELMVLNVPRLMTQDCLQQSRKVGDSPNITEYMFCAGYSDGSKDSCKGDSGGPHATHYRGTWYLTGIVSWGQGCATVGHFGVYTRVSQYIEWLQKLMRSEPRPGVLLRAPFP	3.8			
FVIIa variant Q286D (enzyme) light: ANAFLEELRPGSLERECKEEQCSFEEAREIFKDAERTKLFWISYSDGDQCASSPCQNGGSCKDQLQSYICFCLPAFEGRNCETHKDDQLICVNENGGCEQYCSDHTGTKRSCRCHEGYSLLADGVSCTPTVEYPCGKIPILEKRNASKPQGR heavy: IVGGKVCPKGECPWQVLLLVNGAQLCGGTLINTIWVVSAAHCFDKIKNWRNLIAVLGEHDLSEHDGDEQSRRVAQVIIPSTYVPGTTNHDIALLRLHQPVVLTDHVVPLCLPERTFSERTLAFVRFSLVSGWGDLLDRGATALELMVLNVPRLMTQDCLQQSRKVGDSPNITEYMFCAGYSDGSKDSCKGDSGGPHATHYRGTWYLTGIVSWGQGCATVGHFGVYTRVSQYIEWLQKLMRSEPRPGVLLRAPFP	9.8			
FVIIa V158D/T239V/E296V/M298Q (enzyme) ANAFLEELRPGSLERECKEEQCSFEEAREIFKDAERTKLFWISYSDGDQCASSPCQNGGSCKDQLQSYICFCLPAFEGRNCETHKDDQLICVNENGGCEQYCSDHTGTKRSCRCHEGYSLLADGVSCTPTVEYPCGKIPILEKRNASKPQGRIVGGKDCPKGECPWQVLLLVNGAQLCGGTLINTIWVVSAAHCFDKIKNWRNLIAVLGEHDLSEHDGDEQSRRVAQVIIPSTYVPGTVNHDIALLRLHQPVVLTDHVVPLCLPERTFSERTLAFVRFSLVSGWGQLLDRGATALVLQVLNVPRLMTQDCLQQSRKVGDSPNITEYMFCAGYSDGSKDSCKGDSGGPHATHYRGTWYLTGIVSWGQGCATVGHFGVYTRVSQYIEWLQKLMRSEPRPGVLLRAPFP		2.1	1.9	kcat/KM (M^-1s^-1), TF-dependent assay [2]: 2.22e+08 M⁻¹ s⁻¹ and 1.65e+08 M⁻¹ s⁻¹; kcat/KM, TF-independent assay [2]: 1860 M⁻¹ s⁻¹ and 4230 M⁻¹ s⁻¹; Activity (µmol/sec/µmol), specific activity for mesyl-dFPR-ACC (µmol/sec/µmol) (Mesyl-dFPR-ACC): 2.19; Affinity Kd-WT/Kd-mut [3]: 4.4; Kd [3]: 1.7 nM
FVIIa H257A/Q286R (enzyme) ANAFLEELRPGSLERECKEEQCSFEEAREIFKDAERTKLFWISYSDGDQCASSPCQNGGSCKDQLQSYICFCLPAFEGRNCETHKDDQLICVNENGGCEQYCSDHTGTKRSCRCHEGYSLLADGVSCTPTVEYPCGKIPILEKRNASKPQGRIVGGKVCPKGECPWQVLLLVNGAQLCGGTLINTIWVVSAAHCFDKIKNWRNLIAVLGEHDLSEHDGDEQSRRVAQVIIPSTYVPGTTNHDIALLRLHQPVVLTDAVVPLCLPERTFSERTLAFVRFSLVSGWGRLLDRGATALELMVLNVPRLMTQDCLQQSRKVGDSPNITEYMFCAGYSDGSKDSCKGDSGGPHATHYRGTWYLTGIVSWGQGCATVGHFGVYTRVSQYIEWLQKLMRSEPRPGVLLRAPFP		0.7	5.5	Affinity Kd-WT/Kd-mut [3]: 1.1; Kd [3]: 7.2 nM
FVIIa T239V/M298Q/H373F (enzyme) ANAFLEELRPGSLERECKEEQCSFEEAREIFKDAERTKLFWISYSDGDQCASSPCQNGGSCKDQLQSYICFCLPAFEGRNCETHKDDQLICVNENGGCEQYCSDHTGTKRSCRCHEGYSLLADGVSCTPTVEYPCGKIPILEKRNASKPQGRIVGGKVCPKGECPWQVLLLVNGAQLCGGTLINTIWVVSAAHCFDKIKNWRNLIAVLGEHDLSEHDGDEQSRRVAQVIIPSTYVPGTVNHDIALLRLHQPVVLTDHVVPLCLPERTFSERTLAFVRFSLVSGWGQLLDRGATALELQVLNVPRLMTQDCLQQSRKVGDSPNITEYMFCAGYSDGSKDSCKGDSGGPHATHYRGTWYLTGIVSWGQGCATVGFFGVYTRVSQYIEWLQKLMRSEPRPGVLLRAPFP		1.1	3.5	kcat/KM, TF-dependent assay [2]: 4.43e+07 M⁻¹ s⁻¹
FVIIa M298Q/Q366N/H373F (enzyme) ANAFLEELRPGSLERECKEEQCSFEEAREIFKDAERTKLFWISYSDGDQCASSPCQNGGSCKDQLQSYICFCLPAFEGRNCETHKDDQLICVNENGGCEQYCSDHTGTKRSCRCHEGYSLLADGVSCTPTVEYPCGKIPILEKRNASKPQGRIVGGKVCPKGECPWQVLLLVNGAQLCGGTLINTIWVVSAAHCFDKIKNWRNLIAVLGEHDLSEHDGDEQSRRVAQVIIPSTYVPGTTNHDIALLRLHQPVVLTDHVVPLCLPERTFSERTLAFVRFSLVSGWGQLLDRGATALELQVLNVPRLMTQDCLQQSRKVGDSPNITEYMFCAGYSDGSKDSCKGDSGGPHATHYRGTWYLTGIVSWGNGCATVGFFGVYTRVSQYIEWLQKLMRSEPRPGVLLRAPFP		2.5	1.6	kcat/KM, TF-dependent assay [2]: 7.05e+07 M⁻¹ s⁻¹
FVIIa T239V/Q286R/M298Q/Q366N (enzyme) ANAFLEELRPGSLERECKEEQCSFEEAREIFKDAERTKLFWISYSDGDQCASSPCQNGGSCKDQLQSYICFCLPAFEGRNCETHKDDQLICVNENGGCEQYCSDHTGTKRSCRCHEGYSLLADGVSCTPTVEYPCGKIPILEKRNASKPQGRIVGGKVCPKGECPWQVLLLVNGAQLCGGTLINTIWVVSAAHCFDKIKNWRNLIAVLGEHDLSEHDGDEQSRRVAQVIIPSTYVPGTVNHDIALLRLHQPVVLTDHVVPLCLPERTFSERTLAFVRFSLVSGWGRLLDRGATALELQVLNVPRLMTQDCLQQSRKVGDSPNITEYMFCAGYSDGSKDSCKGDSGGPHATHYRGTWYLTGIVSWGNGCATVGHFGVYTRVSQYIEWLQKLMRSEPRPGVLLRAPFP		0.9	4.1	kcat/KM, TF-dependent assay [2]: 1.85e+08 M⁻¹ s⁻¹
FVIIa T239I/Q286R/M298Q/Q366N (enzyme) ANAFLEELRPGSLERECKEEQCSFEEAREIFKDAERTKLFWISYSDGDQCASSPCQNGGSCKDQLQSYICFCLPAFEGRNCETHKDDQLICVNENGGCEQYCSDHTGTKRSCRCHEGYSLLADGVSCTPTVEYPCGKIPILEKRNASKPQGRIVGGKVCPKGECPWQVLLLVNGAQLCGGTLINTIWVVSAAHCFDKIKNWRNLIAVLGEHDLSEHDGDEQSRRVAQVIIPSTYVPGTINHDIALLRLHQPVVLTDHVVPLCLPERTFSERTLAFVRFSLVSGWGRLLDRGATALELQVLNVPRLMTQDCLQQSRKVGDSPNITEYMFCAGYSDGSKDSCKGDSGGPHATHYRGTWYLTGIVSWGNGCATVGHFGVYTRVSQYIEWLQKLMRSEPRPGVLLRAPFP		1.6	2.4	
FVIIa V158D/E296V/M298Q (enzyme) ANAFLEELRPGSLERECKEEQCSFEEAREIFKDAERTKLFWISYSDGDQCASSPCQNGGSCKDQLQSYICFCLPAFEGRNCETHKDDQLICVNENGGCEQYCSDHTGTKRSCRCHEGYSLLADGVSCTPTVEYPCGKIPILEKRNASKPQGRIVGGKDCPKGECPWQVLLLVNGAQLCGGTLINTIWVVSAAHCFDKIKNWRNLIAVLGEHDLSEHDGDEQSRRVAQVIIPSTYVPGTTNHDIALLRLHQPVVLTDHVVPLCLPERTFSERTLAFVRFSLVSGWGQLLDRGATALVLQVLNVPRLMTQDCLQQSRKVGDSPNITEYMFCAGYSDGSKDSCKGDSGGPHATHYRGTWYLTGIVSWGQGCATVGHFGVYTRVSQYIEWLQKLMRSEPRPGVLLRAPFP			1.8	Affinity Kd-WT/Kd-mut [3]: 3.9; Kd [3]: 2 nM
